Assay results taken from article doi:10.1101/2020.11.13.381350 (bioRxiv, 2020).

Target: the molecule itself
Assay: SEC

B1: EGFP-WT-mVP40 (natural protein)
chain: MASSSNYNTYMQYLNPPPYADHGANQLIPADQLSNQQGITPNYVGDLNLDDQFKGNVCHAFTLEAIIDISAYNERTVKGVPAWLPLGIMSNFEYPLAHTVAALLTGSYTITQFTHNGQKFVRVNRLGTGIPAHPLRMLREGNQAFIQNMVIPRNFSTNQFTYNLTNLVLSVQKLPDDAWRPSKDKLIGNTMHPAVSIHPNLPPIVLPTVKKQAYRQHKNPNNGPLLAISGILHQLRVEKVPEKTSLFRISLPADMFSVKEGMMKKRGENSPVVYFQAPENFPLNGFNNRQVVLAYANPTLSAV
stoichiometry N: 6
